These are literature values, as cited in patent US20160136246A1, “Novel Uses of GLP-1 Receptor Agonists in Patients Treated with Insulin and/or Suffering from Type 1 Diabetes” (NOVO NORDISK A/S, priority 2013, published 2016).

For the series the following is noted: in humans; cited from earlier work.

Regarding “GLP-1: glucagon-like peptide-1, a product of proglucagon, gut hormone”, the plasma half-life is listed as 2 min.
